Tested on: subjects with previously treated locally advanced or metastatic urothelial cancer
Test: EV-301: safety, adverse events (safety analysis set, NCI-CTCAE v4.03, MedDRA)
[1] = Any Grade, N = 296 EV, 291 chemotherapy
[2] = Baseline PN, n = 55 EV, 58 chemotherapy
[3] = Grade 1, N = 296 EV, 291 chemotherapy
[4] = Grade 2, N = 296 EV, 291 chemotherapy
[5] = Grade 3, N = 296 EV, 291 chemotherapy
[6] = Grade 4, N = 296 EV, 291 chemotherapy
[7] = Grade Any, N = 296 EV, 291 chemotherapy

Source text: The Safety Analysis Set (SAF) will be used for the safety analysis. All subjects who are randomized and received study drug will be included in the SAF. The frequency of AEs and the serious AEs will be summarized by MedDRA system organ class and preferred term. In addition, summary statistics will be provided for the following safety parameters: • Laboratory values • Vital sign measurements • ECOG PS
An AE is any untoward medical occurrence in a subject, temporally associated with the use of a medicinal product, whether or not considered related to the medicinal product. An AE can therefore be any unfavorable and unintended sign (including an abnormal laboratory finding), symptom, or disease (new or exacerbated) temporally associated with the use of a medicinal product.
AEs, including abnormal clinical laboratory values, will be graded using the NCI-CTCAE guidelines (Version 4.03).
The safety analysis set (SAF), which consists of all subjects who received any amount of study drug, will be used for safety analyses.
SAF was used to perform all safety analysis. All treated subjects were analyzed according to the treatment they received.
The number and percentage of AEs by severity were also summarized. All AEs were listed.
A study drug-related TEAE is defined as any TEAE with a causal relationship of YES by the investigator. AEs of interest as classified by customized MedDRA queries and/or standard MedDRA queries were also summarized.

## enfortumab vedotin
% of patients
  Treatment-related adverse events of grade 3 or higher: 51.4%
  Treatment-related adverse events resulting in dose reduction: 32.4%
  Treatment-related adverse events resulting in interruption of treatment: 51.0%
  Treatment-related adverse events resulting in withdrawal of treatment: 13.5%
  grade 3 or higher treatment-related decreased neutrophil count: 6.1%
  grade 3 or higher treatment-related fatigue: 6.4%
  grade 3 or higher treatment-related maculopapular rash: 7.4%
All, N = 296 EV, 291 SC
  Grade ≥3 TRAE: Decreased neutrophil count, %: 6.1%
  Grade ≥3 TRAE: Decreased white blood cell count, %: 1.4%
  Grade ≥3 TRAE: Fatigue, %: 6.4%
  Grade ≥3 TRAE: Febrile neutropenia, %: 0.7%
  Grade ≥3 TRAE: Maculopapular rash, %: 7.4%
  Grade ≥3 TRAE: Neutropenia, %: 4.7%
[1]
  TRAE: Alopecia, Number of patients: 134
  TRAE: Alopecia, percent: (45.3) percent
  TRAE: Anemia, Number of patients: 34
  TRAE: Anemia, percent: (11.5) percent
  TRAE: Any adverse event, Number of patients: 278
  TRAE: Any adverse event, percent: (93.9) percent
  TRAE: Decreased appetite, Number of patients: 91
  TRAE: Decreased appetite, percent: (30.7) percent
  TRAE: Decreased neutrophil count, Number of patients: 30
  TRAE: Decreased neutrophil count, percent: (10.1) percent
  TRAE: Decreased white-cell count, Number of patients: 16
  TRAE: Decreased white-cell count, percent: (5.4) percent
  TRAE: Diarrhea, Number of patients: 72
  TRAE: Diarrhea, percent: (24.3) percent
  TRAE: Dysgeusia, Number of patients: 72
  TRAE: Dysgeusia, percent: (24.3) percent
  TRAE: Fatigue, Number of patients: 92
  TRAE: Fatigue, percent: (31.1) percent
  TRAE: Febrile neutropenia, Number of patients: 2
  TRAE: Febrile neutropenia, percent: (0.7) percent
  TRAE: Maculopapular rash, Number of patients: 48
  TRAE: Maculopapular rash, percent: (16.2) percent
  TRAE: Nausea, Number of patients: 67
  TRAE: Nausea, percent: (22.6) percent
  TRAE: Neutropenia, Number of patients: 20
  TRAE: Neutropenia, percent: (6.8) percent
  TRAE: Peripheral sensory neuropathy, Number of patients: 100
  TRAE: Peripheral sensory neuropathy, percent: (33.8) percent
  TRAE: Pruritus, percent: (32.1) percent
Baseline BMI <30 kg/m^2, n = 255 EV, 244 chemotherapy
  Treatment-emergent Hyperglycemia, %: 9.0%
Baseline BMI ≥30 kg/m^2, n = 41 EV, 46 chemotherapy
  Treatment-emergent Hyperglycemia, %: 29.3%
[2]
  Treatment-emergent Hyperglycemia, %: 38.2%
  Treatment-emergent Peripheral motor neuropathy, %: 20.0%
  Treatment-emergent Peripheral neuropathy, %: 49.1%
  Treatment-emergent Peripheral sensory neuropathy, %: 40.0%
[3]
  TRAE of special interest: Blurred vision, %: 3.4%
  TRAE of special interest: Corneal disorders, %: 0.7%
  TRAE of special interest: Dry eye, %: 11.5%
  TRAE of special interest: Extravasation site reactions, %: 0.3%
  TRAE of special interest: Hyperglycemia, %: 1.0%
  TRAE of special interest: Infusion-related reactions, %: 3.7%
  TRAE of special interest: Infusion-related reactions, Local events, %: 0.3%
  TRAE of special interest: Infusion-related reactions, Systemic events, %: 3.4%
  TRAE of special interest: Ocular disorders, %: 13.5%
  TRAE of special interest: Peripheral neuropathy, %: 14.9%
  TRAE of special interest: Peripheral neuropathy, Motor events, %: 1.7%
  TRAE of special interest: Peripheral neuropathy, Sensory events, %: 14.5%
  TRAE of special interest: Rash, %: 13.9%
  TRAE of special interest: Severe cutaneous adverse reaction, %: 6.8%
  TRAE of special interest: Skin reactions, %: 13.9%
[4]
  TRAE of special interest: Blurred vision, %: 0.7%
  TRAE of special interest: Dry eye, %: 3.7%
  TRAE of special interest: Extravasation site reactions, %: 0.7%
  TRAE of special interest: Hyperglycemia, %: 1.4%
  TRAE of special interest: Infusion site reactions, %: 0.7%
  TRAE of special interest: Infusion-related reactions, %: 3.7%
  TRAE of special interest: Infusion-related reactions, Local events, %: 0.7%
  TRAE of special interest: Infusion-related reactions, Systemic events, %: 3.0%
  TRAE of special interest: Ocular disorders, %: 4.4%
  TRAE of special interest: Peripheral neuropathy, %: 26.4%
  TRAE of special interest: Peripheral neuropathy, Motor events, %: 4.1%
  TRAE of special interest: Peripheral neuropathy, Sensory events, %: 25.7%
  TRAE of special interest: Rash, %: 15.5%
  TRAE of special interest: Severe cutaneous adverse reaction, %: 8.4%
  TRAE of special interest: Skin reactions, %: 18.6%
[5]
  TRAE of special interest: Dry eye, %: 0.7%
  TRAE of special interest: Hyperglycemia, %: 3.7%
  TRAE of special interest: Infusion-related reactions, %: 1.4%
  TRAE of special interest: Infusion-related reactions, Systemic events, %: 1.4%
  TRAE of special interest: Ocular disorders, %: 0.7%
  TRAE of special interest: Peripheral neuropathy, %: 5.1%
  TRAE of special interest: Peripheral neuropathy, Motor events, %: 1.7%
  TRAE of special interest: Peripheral neuropathy, Sensory events, %: 3.7%
  TRAE of special interest: Rash, %: 14.2%
  TRAE of special interest: Severe cutaneous adverse reaction, %: 4.7%
  TRAE of special interest: Skin reactions, %: 14.2%
[6]
  TRAE of special interest: Rash, %: 0.3%
  TRAE of special interest: Severe cutaneous adverse reaction, %: 0.3%
  TRAE of special interest: Skin reactions, %: 0.3%
Grade 5, N = 296 EV, 291 chemotherapy
  TRAE of special interest: Hyperglycemia, %: 0.3%
[7]
  TRAE of special interest: Blurred vision, %: 4.1%
  TRAE of special interest: Corneal disorders, %: 0.7%
  TRAE of special interest: Dry eye, %: 15.9%
  TRAE of special interest: Extravasation site reactions, %: 1.0%
  TRAE of special interest: Hyperglycemia, %: 6.4%
  TRAE of special interest: Infusion site reactions, %: 0.7%

Reference: patent US20230330251A1, “METHODS FOR TREATING CANCERS WITH ANTIBODY DRUG CONJUGATES (ADC) THAT BIND TO 191P4D12 PROTEINS” (AGENSYS, INC., priority 2020, published 2023)
